Reference: patent US20250361274A1, “PEPTIDE AND PEPTIDE-CONTAINING AGENT” (PEPTIDREAM INC., priority 2022, published 2025)
Numbered stars: 1 amine (or outer) side, 2 acyl side, 3 side chain; on linkers, the order of the positions; unused ones are H or OH. Bridge positions count the residues as written; N and C are the ends. Square brackets hold non-standard residues; d marks the D form. Side chains are listed from the residue outwards. Ends that are not written are not given here. Peptide text beside a SMILES is read from it. * marks the point of attachment. X7 = O=C(O)CCC(NC(=O)CCNC(=O)[C@H](CSCC(=O)[*:1])CC(=O)[C@H](CO)N[*:2])C(=O)O; 3Pal(6-Ph) = N[C@@H](Cc1ccc(-c2ccccc2)nc1)C(=O)O; Phe(4-COOH) = N[C@@H](Cc1ccc(C(=O)O)cc1)C(=O)O; NMePhe(4-Me) = CN[C@@H](Cc1ccc(C)cc1)C(=O)O; Piperazinyl(4-CH2COOH) = O=C(O)CN1CCN(*)CC1; Bip = N[C@@H](Cc1ccc(-c2ccccc2)cc1)C(=O)O; Nle(6-COOH) = N[C@@H](CCCCC(=O)O)C(=O)O; X1 = N=C(CN)NCCC[C@H](N[*:1])C(=O)[*:2]; Phe(4-F) = N[C@@H](Cc1ccc(F)cc1)C(=O)O; cisHyp = O=C(O)[C@@H]1C[C@H](O)CN1; Hyp = O=C(O)[C@@H]1C[C@@H](O)CN1; NMeF = CN[C@@H](Cc1ccccc1)C(=O)O; Aad = N[C@@H](CCCC(=O)O)C(=O)O; Cha = N[C@@H](CC1CCCCC1)C(=O)O; Abu = CC[C@H](N)C(=O)O; CO = O=C([*:1])[*:2]; βAla = NCCC(=O)O

What was measured:
BMP7 = target: T1, BMP7 (Homo sapiens, UniProt P18075); assay: BMP7 signal transduction inhibitory activity: SMAD1 phosphorylation by BMP7 stimulus, A549 cells; assay type: cell-based; conditions: for aLISA BMP7 (10 nM) % inh: BMP7 10 nM stimulus, peptide conc. in assay 1, 10, 100 nM; for aLISA BMP7: inhibition of SMAD1 phosphorylation by BMP7 stimulus, A549 cells, peptides of Synthesis 2, classes A-D, ND
T1 sequence (P18075 293-431): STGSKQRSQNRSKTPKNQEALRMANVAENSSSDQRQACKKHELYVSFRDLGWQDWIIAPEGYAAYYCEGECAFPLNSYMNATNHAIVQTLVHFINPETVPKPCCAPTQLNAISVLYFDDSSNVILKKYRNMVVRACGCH
In short: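 Inhibition is read as reduced BMP7-driven SMAD1 phosphorylation in human A549 cells, with the BMP7 stimulus at 10 nM. Three-point peptide concentrations spanned 1–1,000 nM depending on the peptide series. Some peptides received eight-point, 1/3-ratio titrations from 100 nM or 1,000 nM, alongside a Noggin control.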

BMP4 = target: T2, BMP4 (Homo sapiens, UniProt P12644); assay: BMP4 signal transduction inhibitory activity: SMAD1 phosphorylation by BMP4 stimulus, AlphaLISA SureFire, A549 cells; assay type: cell-based; conditions: for aLISA BMP4 (0.2 nM) % inh: BMP4 0.2 nM stimulus, peptide conc. in assay 0.2, 2, 20 nM; for aLISA BMP4: inhibition of SMAD1 phosphorylation by BMP4 stimulus, A549 cells, peptides of Synthesis 2, classes A-C, ND
T2 sequence (P12644 293-408): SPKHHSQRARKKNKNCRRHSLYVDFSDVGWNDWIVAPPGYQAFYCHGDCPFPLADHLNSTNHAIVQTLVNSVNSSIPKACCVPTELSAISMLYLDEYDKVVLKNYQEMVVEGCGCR

| Molecule | aLISA BMP7 (10 nM) % inh (BMP7) | aLISA BMP4 (0.2 nM) % inh (BMP4) | also measured |
| --- | --- | --- | --- |
| 410 (FG[NMeF]G[3Pal(6-Ph)]GDE[Cha][Aad][NMeF]L[Phe(4-COOH)]C-NH2; not fully specified) [compound 410] | D (showed less than 30% of inhibitory activity in 10 nM-addition zone and showed 30% or more of inhibitory activity in 100 nM-addition zone) | ND (the inhibitory activity was less than 30% at the maximum concentration evaluated) | – |
| 411 (FG[NMeF]G[3Pal(6-Ph)]GDE[Cha][Aad][NMeF]L[Phe(4-COOH)]C[βAla][dE]) [compound 411] | D (showed less than 30% of inhibitory activity in 10 nM-addition zone and showed 30% or more of inhibitory activity in 100 nM-addition zone) | ND (the inhibitory activity was less than 30% at the maximum concentration evaluated) | – |
| 412 ([Phe(4-F)]G[NMeF]G[3Pal(6-Ph)]GDE[Cha][Aad][NMePhe(4-Me)]L[Phe(4-COOH)]C-NH2; not fully specified) [compound 412] | D (showed less than 30% of inhibitory activity in 10 nM-addition zone and showed 30% or more of inhibitory activity in 100 nM-addition zone) | ND (the inhibitory activity was less than 30% at the maximum concentration evaluated) | – |
| 413 ([Phe(4-F)]G[NMeF]G[3Pal(6-Ph)]GDE[Cha][Aad][NMePhe(4-Me)]L[Phe(4-COOH)]C[βAla][dE]) [compound 413] | D (showed less than 30% of inhibitory activity in 10 nM-addition zone and showed 30% or more of inhibitory activity in 100 nM-addition zone) | ND (the inhibitory activity was less than 30% at the maximum concentration evaluated) | – |
| 414 (FG[NMeF]G[3Pal(6-Ph)]GDE[Cha][Aad][NMeF]L[cisHyp]C-NH2; not fully specified) [compound 414] | D (showed less than 30% of inhibitory activity in 10 nM-addition zone and showed 30% or more of inhibitory activity in 100 nM-addition zone) | ND (the inhibitory activity was less than 30% at the maximum concentration evaluated) | – |
| 415 (FGFGAGDEAEFLPCAE; not fully specified; MOD_RES 3 F represents Methyl-L-phenylalanine(MeF); MOD_RES 5 A represents (S)-2-Amino-3-(6-phenylpyridin-3-yl)propanoic acid(3Py6Ph); MOD_RES 9 A represents (S)-2-Amino-3-cyclohexylpropanoic acid(Cha); MOD_RES 10 E represents L-2-Amino adipic acid (Hgl); MOD_RES 11 F represents Methyl-L-phenylalanine(MeF); MOD_RES 13 P represents (2S,4S)-4-Hydroxypyrrolidine-2-carboxylic acid(P4Sh); MOD_RES 15 A) [compound 415] | D (showed less than 30% of inhibitory activity in 10 nM-addition zone and showed 30% or more of inhibitory activity in 100 nM-addition zone) | ND (the inhibitory activity was less than 30% at the maximum concentration evaluated) | – |
| 416 ([Phe(4-F)]G[NMeF]G[3Pal(6-Ph)]GDE[Cha][Aad][NMePhe(4-Me)]L[cisHyp]C-NH2; not fully specified) [compound 416] | D (showed less than 30% of inhibitory activity in 10 nM-addition zone and showed 30% or more of inhibitory activity in 100 nM-addition zone) | ND (the inhibitory activity was less than 30% at the maximum concentration evaluated) | – |
| 418 (FG[NMeF]G[3Pal(6-Ph)]GDE[Cha][Aad][NMeF]L[Abu]C-NH2; not fully specified) [compound 418] | D (showed less than 30% of inhibitory activity in 10 nM-addition zone and showed 30% or more of inhibitory activity in 100 nM-addition zone) | ND (the inhibitory activity was less than 30% at the maximum concentration evaluated) | – |
| 419 (FG[NMeF]G[3Pal(6-Ph)]GDE[Cha][Aad][NMeF]L[Abu]C[βAla][dE]) [compound 419] | D (showed less than 30% of inhibitory activity in 10 nM-addition zone and showed 30% or more of inhibitory activity in 100 nM-addition zone) | ND (the inhibitory activity was less than 30% at the maximum concentration evaluated) | – |
| 420 ([Phe(4-F)]G[NMeF]G[3Pal(6-Ph)]GDE[Cha][Aad][NMePhe(4-Me)]L[Abu]C-NH2; also: cyclic peptide, ring closure not given here) [compound 420] | D (showed less than 30% of inhibitory activity in 10 nM-addition zone and showed 30% or more of inhibitory activity in 100 nM-addition zone) | ND (the inhibitory activity was less than 30% at the maximum concentration evaluated) | – |
| 421 ([Phe(4-F)]G[NMeF]G[3Pal(6-Ph)]GDE[Cha][Aad][NMePhe(4-Me)]L[Abu]C[βAla][dE]; also: cyclic peptide, ring closure not given here) [compound 421] | D (showed less than 30% of inhibitory activity in 10 nM-addition zone and showed 30% or more of inhibitory activity in 100 nM-addition zone) | ND (the inhibitory activity was less than 30% at the maximum concentration evaluated) | – |
| CC(C)[C@@H]1NC(=O)[C@H](Cc2ccc(C(=O)O)cc2)NC(=O)[C@H](C(C)C)NC(=O)[C@H](CCCNC(=N)N)NC(=O)[C@H](CCC(=O)O)NC(=O)CSC[C@@H](C(=O)NCC(N)=O)NC(=O)[C@H](CO)NC(=O)[C@H](Cc2ccc(C(=O)O)cc2)NC(=O)[C@H](Cc2ccc(C(=O)O)cc2)NC(=O)[C@H](Cc2ccc(O)cc2)NC(=O)[C@H](Cc2ccc(-c3ccccc3)cc2)NC(=O)[C@@H]2C[C@@H](O)CN2C(=O)[C@H](Cc2ccc(O)cc2)NC(=O)[C@H](CCCCNC(=O)N2CCN(CC(=O)O)CC2)NC(=O)[C@H](Cc2ccc(-c3ccccc3)nc2)NC(=O)[C@H](CCCNC(=N)N)NC(=O)[C@H](CCCCNC(=O)N2CCN(CC(=O)O)CC2)NC1=O [Peptide 277] ({CH2CO}-ERV[Phe(4-COOH)]VK([CO-Piperazinyl(4-CH2COOH)])R[3Pal(6-Ph)]K([CO-Piperazinyl(4-CH2COOH)])Y[Hyp][Bip]Y[Phe(4-COOH)][Phe(4-COOH)]SCG-NH2; thioether N-17) | – | – | IC50 (BMP7; Table 2-2, 277 from 1,000 nM (1/3), 417 from 300 nM (1/4)): 455 nM; IC50 (BMP4; Table 2-2, 277 from 20 nM (1/3), 417 from 300 nM (1/4), ND = IC50 was not calculated): 0.073 nM |
| CC(C)C[C@@H]1NC(=O)[C@H](Cc2ccc(O)cc2)NC(=O)[C@H](C(C)C)NC(=O)[C@H](CCCNC(=N)N)NC(=O)[C@H](CCCCC(=O)O)NC(=O)CSC[C@@H](C(=O)NCCC(=O)NC(CCC(=O)O)C(=O)O)CC(=O)[C@H](CO)NC(=O)[C@H](Cc2ccc(C(=O)O)cc2)NC(=O)[C@H](Cc2ccc(C(=O)O)cc2)NC(=O)[C@H](Cc2ccc(O)cc2)NC(=O)[C@H](Cc2ccc(-c3ccccc3)cc2)NC(=O)[C@H](C(C)C)NC(=O)[C@H](Cc2ccc(O)cc2)NC(=O)[C@@H]2CCCN2C(=O)[C@H](Cc2ccc(-c3ccccc3)nc2)NC(=O)[C@H](CCCNC(=N)CN)NC(=O)[C@H](CC(=O)O)NC1=O (stereo partly drawn) [SEQ ID No. 84] ([Nle(6-COOH)]RVYLD[X1][3Pal(6-Ph)]PYV[Bip]Y[Phe(4-COOH)][Phe(4-COOH)]; linker N-C via X7) | – | – | aLISA BMP7 (BMP7): C (showed less than 50% of inhibitory activity in 10 nM-addition zone and showed 50% or more of inhibitory activity in 100 nM-addition zone); aLISA BMP4 (BMP4): A (showed an inhibitory activity of 50% or more in a zone to which the peptide was added to in an amount of 0.2 nM) |
| CC(C)C[C@@H]1NC(=O)[C@H](Cc2ccc(O)cc2)NC(=O)[C@H](C(C)C)NC(=O)[C@H](CCCNC(=N)N)NC(=O)[C@H](CCCCC(=O)O)NC(=O)CSC[C@@H](C(=O)NCC(N)=O)NC(=O)[C@H](CO)NC(=O)[C@H](Cc2ccc(C(=O)O)cc2)NC(=O)[C@H](Cc2ccc(C(=O)O)cc2)NC(=O)[C@H](Cc2ccc(O)cc2)NC(=O)[C@H](Cc2ccc(-c3ccccc3)cc2)NC(=O)[C@H](C(C)C)NC(=O)[C@H](Cc2ccc(O)cc2)NC(=O)[C@H](CO)NC(=O)[C@H](Cc2ccc(-c3ccccc3)nc2)NC(=O)[C@H](CCCNC(=N)CN)NC(=O)[C@H](CC(=O)O)NC1=O [SEQ ID No. 87] ({CH2CO}-[Nle(6-COOH)]RVYLD[X1][3Pal(6-Ph)]SYV[Bip]Y[Phe(4-COOH)][Phe(4-COOH)]SCG-NH2; thioether N-17) | – | – | BMP7 inhibitory activity (in words) (BMP7): does not inhibit signal transduction of BMP7; aLISA BMP7 (BMP7): ND (the inhibitory activity was less than 30% at the maximum concentration evaluated); BMP4 inhibitory activity (in words) (BMP4): same level of the BMP4 inhibitory activity as Noggin; aLISA BMP4 (BMP4): A (showed an inhibitory activity of 50% or more in a zone to which the peptide was added to in an amount of 0.2 nM) |
